Article PMC8130709, “Structure and activation mechanism of the human liver-type glutaminase GLS2” (Biochimie, 2021)
Where “and” joins values, the source holds several entries; their conditions need not be identical. Equal entries are not always repeated.

Assays:
[1] = target: the molecule itself; assay: crystal structure; ligand-free, sitting drop at 293 K, 0.1 M Tris pH 8.5, 0.2 M NaCl, 25% PEG 3350; space group H 3 2, two monomers in the asymmetric unit, tetramer generated by crystal symmetry
[2] = target: the molecule itself; assay: SEC; analytical gel filtration of serial dilutions of the protein, in the absence of phosphate; Stokes radius against protein concentration

Row | Protein | stoichiometry N [1] | stoichiometry N [2]
1 | Human GLS2 glutaminase domain (Ile154-Gly479) (domain or fragment, UniProt Q9UI32-1 154-479, looked up, liver-type glutaminase GLS2, human, glutaminase (catalytic) domain, residues Ile154-Gly479, common to the LGA and GAB isoforms; Cloned into pNIC28-Bsa4; also called human GLS2 catalytic domain construct; source: E. coli BL21(DE3)-R3-pRARE2, purified (Ni-NTA, Superdex 200 gel filtration, HiTrap Q HP)) IPDFEEFTGHVDRIFEDVKELTGGKVAAYIPQLAKSNPDLWGVSLCTVDGQRHSVGHTKIPFCLQSCVKPLTYAISISTLGTDYVHKFVGKEPSGLRYNKLSLNEEGIPHNPMVNAGAIVVSSLIKMDCNKAEKFDFVLQYLNKMAGNEYMGFSNATFQSEKETGDRNYAIGYYLKEKKCFPKGVDMMAALDLYFQLCSVEVTCESGSVMAATLANGGICPITGESVLSAEAVRNTLSLMHSCGMYDFSGQFAFHVGLPAKSAVSGAILLVVPNVMGMMCLSPPLDKLGNSHRGTSFCQKLVSLFNFHNYDNLRHCARKLDPRREG | 4 | –
2 | Mouse GLS2 (Leu72-Val602) (enzyme, UniProt Q571F8 72-602, looked up, liver-type glutaminase GLS2, mouse, residues Leu72-Val602; also called liver-type glutaminase; wild type; source: recombinant, purified) LGDLLFYTIAEGQERIPIHKFTTALKATGLQTSDPRLQDCMSKMQRMVQESSSGGLLDRELFQKCVSSNIVLLTQAFRKKFVIPDFEEFTGHVDRIFEDAKEPTGGKVAAYIPHLAKSNPDLWGVSLCTVDGQRHSVGHTKIPFCLQSCVKPLTYAISVSTLGTDYVHKFVGKEPSGLRYNKLSLNEEGIPHNPMVNAGAIVVSSLIKMDCNKAEKFDFVLQYLNKMAGNEFMGFSNATFQSEKETGDRNYAIGYYLKEKKCFPKGVDMMAALDLYFQLCSVEVTCESGSVMAATLANGGICPITGESVLSAEAVRNTLSLMHSCGMYDFSGQFAFHVGLPAKSAVSGAILLVVPNVMGMMCLSPPLDKLGNSQRGINFCQKLVSLFNFHNYDNLRHCARKLDPRREGGEVRNKTVVNLLFAAYSGDVSALRRFALSAMDMEQKDYDSRTALHVAAAEGHIEVVKFLIEACKVNPFVKDRWGNIPLDDAVQFNHLEVVKLLQDYHDSYLLSETQAEAAAETLSKENLESMV | – | 2 and 4
3 | Mouse GLS2 (Leu72-Val602) Lys253Ala mutant (enzyme, UniProt Q571F8 72-602, looked up, also called K253A; source: recombinant, purified; point mutant generated by PCR (QuickChange II XL)) LGDLLFYTIAEGQERIPIHKFTTALKATGLQTSDPRLQDCMSKMQRMVQESSSGGLLDRELFQKCVSSNIVLLTQAFRKKFVIPDFEEFTGHVDRIFEDAKEPTGGKVAAYIPHLAKSNPDLWGVSLCTVDGQRHSVGHTKIPFCLQSCVKPLTYAISVSTLGTDYVHKFVGKEPSGLRYNALSLNEEGIPHNPMVNAGAIVVSSLIKMDCNKAEKFDFVLQYLNKMAGNEFMGFSNATFQSEKETGDRNYAIGYYLKEKKCFPKGVDMMAALDLYFQLCSVEVTCESGSVMAATLANGGICPITGESVLSAEAVRNTLSLMHSCGMYDFSGQFAFHVGLPAKSAVSGAILLVVPNVMGMMCLSPPLDKLGNSQRGINFCQKLVSLFNFHNYDNLRHCARKLDPRREGGEVRNKTVVNLLFAAYSGDVSALRRFALSAMDMEQKDYDSRTALHVAAAEGHIEVVKFLIEACKVNPFVKDRWGNIPLDDAVQFNHLEVVKLLQDYHDSYLLSETQAEAAAETLSKENLESMV | – | 4
